According to publication PMC9482650, “Quantitative fragmentomics allow affinity mapping of interactomes” (Nature Communications, 2022):

What was measured:
Experiment in all cases: holdup assay
Design in all cases: key: below the threshold = too weak to quantify, mostly under pKd 3.1 to 4
[1] = biological target: DLG2_1, Q15700
[2] = biological target: DVL2, O14641
[3] = biological target: T1, GRIP1_1, Q9Y3R0
T1 sequence (Q9Y3R0 48-146, limits assumed, looked up): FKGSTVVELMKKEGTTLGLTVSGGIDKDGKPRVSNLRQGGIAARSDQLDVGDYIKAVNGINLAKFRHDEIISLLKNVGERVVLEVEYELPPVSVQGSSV

[4] = biological target: T2, INTU, Q9ULD6
T2 sequence (Q9ULD6 180-273, limits assumed, looked up): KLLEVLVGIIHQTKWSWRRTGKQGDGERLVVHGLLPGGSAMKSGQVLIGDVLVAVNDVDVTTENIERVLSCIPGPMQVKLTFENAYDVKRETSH

[5] = biological target: LIMK1, P53667
[6] = biological target: MAGI3_3, Q5TCQ9
[7] = biological target: T3, MLLT4, P55196
T3 sequence (P55196 1002-1103, limits assumed, looked up): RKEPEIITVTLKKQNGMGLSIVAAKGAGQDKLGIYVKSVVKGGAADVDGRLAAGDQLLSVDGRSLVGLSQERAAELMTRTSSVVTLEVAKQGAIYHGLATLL

[8] = biological target: T4, MPDZ_13, O75970
T4 sequence (O75970 1982-2070, limits assumed, looked up): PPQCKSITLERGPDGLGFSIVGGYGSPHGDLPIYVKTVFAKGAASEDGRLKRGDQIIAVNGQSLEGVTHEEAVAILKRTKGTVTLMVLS

[9] = biological target: T5, MPP1, Q00013
T5 sequence (Q00013 66-162, limits assumed, looked up): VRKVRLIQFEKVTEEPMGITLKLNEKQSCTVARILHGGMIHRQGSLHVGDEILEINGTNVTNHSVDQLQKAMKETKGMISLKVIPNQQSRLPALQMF

[10] = biological target: T6, NHERF3_2, Q5T2W1
T6 sequence (Q5T2W1 129-225, limits assumed, looked up): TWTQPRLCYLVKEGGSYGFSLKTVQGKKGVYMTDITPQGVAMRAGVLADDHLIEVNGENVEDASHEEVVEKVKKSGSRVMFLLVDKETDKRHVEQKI

[11] = biological target: PARD3B_3, Q8TEW8
[12] = biological target: T7, PDZD2_5, O15018
T7 sequence (O15018 2617-2716, limits assumed, looked up): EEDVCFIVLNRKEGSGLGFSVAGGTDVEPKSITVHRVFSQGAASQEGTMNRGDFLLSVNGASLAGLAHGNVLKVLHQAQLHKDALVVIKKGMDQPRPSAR

[13] = biological target: T8, PDZD2_6, O15018
T8 sequence (O15018 2745-2839, limits assumed, looked up): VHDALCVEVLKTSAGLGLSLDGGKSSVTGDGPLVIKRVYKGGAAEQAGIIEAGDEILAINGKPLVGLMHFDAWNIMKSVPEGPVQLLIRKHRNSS

[14] = biological target: T9, PDZRN3_2, Q9UPQ7
T9 sequence (Q9UPQ7 414-513, limits assumed, looked up): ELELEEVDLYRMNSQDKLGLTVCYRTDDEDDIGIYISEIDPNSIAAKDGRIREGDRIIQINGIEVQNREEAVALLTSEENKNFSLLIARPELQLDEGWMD

[15] = biological target: T10, PREX2_2, Q70Z35
T10 sequence (Q70Z35 672-764, limits assumed, looked up): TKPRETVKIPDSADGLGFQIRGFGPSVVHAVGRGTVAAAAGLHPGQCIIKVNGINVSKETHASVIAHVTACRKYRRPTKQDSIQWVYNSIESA

[16] = biological target: RGS3, P49796-9
[17] = biological target: SDCBP_1, O00560
[18] = biological target: T11, SHANK2, Q9UPX8
T11 sequence (Q9UPX8 621-730, limits assumed, looked up): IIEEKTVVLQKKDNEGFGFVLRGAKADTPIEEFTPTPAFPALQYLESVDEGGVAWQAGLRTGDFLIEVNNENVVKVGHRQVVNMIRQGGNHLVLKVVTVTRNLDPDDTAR

[19] = biological target: T12, SHROOM2, Q13796
T12 sequence (Q13796 21-118, limits assumed, looked up): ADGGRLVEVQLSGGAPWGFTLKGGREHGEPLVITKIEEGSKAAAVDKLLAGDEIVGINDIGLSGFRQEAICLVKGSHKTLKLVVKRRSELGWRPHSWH

[20] = biological target: T13, SYNPO2L, Q9H987
T13 sequence (Q9H987 1-98, limits assumed, looked up): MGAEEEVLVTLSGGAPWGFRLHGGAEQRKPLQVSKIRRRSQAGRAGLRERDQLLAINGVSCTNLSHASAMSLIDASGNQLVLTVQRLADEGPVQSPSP

[21] = biological target: TJP1_1, Q07157
[22] = biological target: T14, TJP3_2, O95049
T14 sequence (O95049 190-282, limits assumed, looked up): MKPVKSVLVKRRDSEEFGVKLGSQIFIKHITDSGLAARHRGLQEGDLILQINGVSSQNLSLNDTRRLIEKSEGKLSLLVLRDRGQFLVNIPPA

[23] = plain residues with an end cap or a label only (N-terminal biotin on a linker: none)
[24] = plain residues with an end cap or a label only (N-terminal biotin on a linker: ttds)

Sequence of SDCBP_1, O00560 (O00560 111-198): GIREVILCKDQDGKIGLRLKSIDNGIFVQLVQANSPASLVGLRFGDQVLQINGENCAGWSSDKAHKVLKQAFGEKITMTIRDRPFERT
Sequence of LIMK1, P53667 (P53667 155-268): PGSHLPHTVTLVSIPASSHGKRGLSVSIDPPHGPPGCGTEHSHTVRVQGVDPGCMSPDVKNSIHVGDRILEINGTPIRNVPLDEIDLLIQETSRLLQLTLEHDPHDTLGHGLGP
Sequence of DVL2, O14641 (O14641 260-359): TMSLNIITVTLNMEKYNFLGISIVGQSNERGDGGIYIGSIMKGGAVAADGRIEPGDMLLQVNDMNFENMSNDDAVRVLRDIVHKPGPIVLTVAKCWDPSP
Sequence of MAGI3_3, Q5TCQ9 (Q5TCQ9 572-655): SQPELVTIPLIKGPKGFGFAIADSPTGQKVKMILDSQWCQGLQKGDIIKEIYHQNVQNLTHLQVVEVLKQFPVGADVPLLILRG
Sequence of TJP1_1, Q07157 (Q07157 18-120): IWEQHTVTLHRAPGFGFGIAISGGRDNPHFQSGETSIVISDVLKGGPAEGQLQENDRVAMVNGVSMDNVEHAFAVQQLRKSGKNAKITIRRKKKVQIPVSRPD
Sequence of RGS3, P49796-9 (P49796 other isoform, or with tags, fused parts or gaps): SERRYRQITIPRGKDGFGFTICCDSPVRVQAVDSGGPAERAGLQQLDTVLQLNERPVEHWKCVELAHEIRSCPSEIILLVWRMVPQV
Sequence of PARD3B_3, Q8TEW8 (Q8TEW8 490-594): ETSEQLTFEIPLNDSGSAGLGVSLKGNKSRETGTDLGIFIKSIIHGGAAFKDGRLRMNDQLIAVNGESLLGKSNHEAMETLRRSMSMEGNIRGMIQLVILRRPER

NLNSSRVPDLLV [SARS-CoV2-E, P0DTC4]
pKd [1, 23]: below the threshold
pKd [2, 23]: below the threshold
pKd [3, 23]: below the threshold
pKd [4, 23]: below the threshold
pKd [5, 23]: below the threshold
pKd [6, 23]: below the threshold
pKd [7, 23]: 4.1
pKd [8, 23]: below the threshold
pKd [9, 23]: below the threshold
pKd [10, 23]: below the threshold
pKd [11, 23]: below the threshold
pKd [12, 23]: below the threshold
pKd [13, 23]: 4.07
pKd [14, 23]: below the threshold
pKd [15, 23]: below the threshold
pKd [16, 23]: below the threshold
pKd [17, 23]: below the threshold
pKd [18, 23]: below the threshold
pKd [19, 23]: below the threshold
pKd [20, 23]: below the threshold
pKd [21, 23]: below the threshold
pKd [22, 23]: below the threshold

RLPKIKETTV [FRMPD4, Q14CM0]
pKd [1, 24]: 5.32
pKd [2, 24]: below the threshold
pKd [3, 24]: below the threshold
pKd [4, 24]: below the threshold
pKd [5, 24]: 4.48
pKd [6, 24]: below the threshold
pKd [7, 24]: below the threshold
pKd [8, 24]: below the threshold
pKd [9, 24]: 5.3
pKd [10, 24]: below the threshold
pKd [11, 24]: below the threshold
pKd [12, 24]: below the threshold
pKd [13, 24]: below the threshold
pKd [14, 24]: below the threshold
pKd [15, 24]: 4.25
pKd [16, 24]: below the threshold
pKd [17, 24]: below the threshold
pKd [18, 24]: below the threshold
pKd [19, 24]: below the threshold
pKd [20, 24]: below the threshold
pKd [21, 24]: below the threshold
pKd [22, 24]: below the threshold

SGSRPSATVV [HPV73-E6, Q82005]
pKd [1, 24]: below the threshold
pKd [2, 24]: below the threshold
pKd [3, 24]: below the threshold
pKd [4, 24]: 4.58
pKd [5, 24]: below the threshold
pKd [6, 24]: below the threshold
pKd [7, 24]: below the threshold
pKd [8, 24]: below the threshold
pKd [9, 24]: 4.14
pKd [10, 24]: below the threshold
pKd [11, 24]: below the threshold
pKd [12, 24]: below the threshold
pKd [13, 24]: below the threshold
pKd [14, 24]: below the threshold
pKd [15, 24]: below the threshold
pKd [16, 24]: below the threshold
pKd [17, 24]: below the threshold
pKd [18, 24]: below the threshold
pKd [19, 24]: below the threshold
pKd [20, 24]: below the threshold
pKd [21, 24]: below the threshold
pKd [22, 24]: below the threshold
